US20210079056A1 (Bayer, published 2021)
“And” between values parts separate entries of the source, which are not always exact repeats. Equal entries are not always repeated.

T1: human NPRA (human, UniProt P16066 33-1061)
T1 sequence (looked up): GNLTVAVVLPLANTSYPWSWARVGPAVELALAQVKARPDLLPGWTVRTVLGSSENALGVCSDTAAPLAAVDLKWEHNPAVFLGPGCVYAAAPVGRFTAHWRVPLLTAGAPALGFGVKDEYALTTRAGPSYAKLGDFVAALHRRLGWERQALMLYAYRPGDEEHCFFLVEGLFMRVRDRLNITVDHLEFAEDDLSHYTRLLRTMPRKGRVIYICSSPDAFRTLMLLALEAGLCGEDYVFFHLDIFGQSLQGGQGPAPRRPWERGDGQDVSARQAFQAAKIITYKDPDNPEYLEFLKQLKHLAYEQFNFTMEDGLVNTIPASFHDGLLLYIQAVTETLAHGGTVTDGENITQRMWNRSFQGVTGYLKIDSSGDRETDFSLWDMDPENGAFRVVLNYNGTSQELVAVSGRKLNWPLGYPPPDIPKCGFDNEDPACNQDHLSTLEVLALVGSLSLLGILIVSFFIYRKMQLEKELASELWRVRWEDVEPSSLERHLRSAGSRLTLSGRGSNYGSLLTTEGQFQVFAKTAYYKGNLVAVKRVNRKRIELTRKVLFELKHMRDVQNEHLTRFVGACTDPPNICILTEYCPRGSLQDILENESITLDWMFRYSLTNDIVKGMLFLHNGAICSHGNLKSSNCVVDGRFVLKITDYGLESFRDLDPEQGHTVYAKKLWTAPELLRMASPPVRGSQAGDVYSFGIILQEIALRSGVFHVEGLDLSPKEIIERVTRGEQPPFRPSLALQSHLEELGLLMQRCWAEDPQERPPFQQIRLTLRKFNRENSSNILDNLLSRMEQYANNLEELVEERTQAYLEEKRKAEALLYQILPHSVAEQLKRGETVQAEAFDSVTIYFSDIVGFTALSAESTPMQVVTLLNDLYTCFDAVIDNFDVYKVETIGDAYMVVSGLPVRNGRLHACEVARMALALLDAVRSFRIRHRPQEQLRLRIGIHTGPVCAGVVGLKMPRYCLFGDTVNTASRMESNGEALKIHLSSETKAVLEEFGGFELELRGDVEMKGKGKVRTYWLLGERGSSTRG


Target: T1, human NPRA
Experiment: cell-based or functional assay

average rel logEC50	rel. logEC50 pcs 2	rel. logEC50 pcs 3	rel. logEC50 pcs 4	rel. logEC50 pcs 5	rel. logEC50* pcs	rel. logEC50 pcs 6	rel. logEC50 pcs 1	rel. logEC50 pcs 9	rel. logEC50 pcs 7	Binder
-0.2	-0.6	0.2	-0.3							TPP-10355 (antibody, human IgG1, lambda) heavy: not shown light: QSVLTQPPSVSGAPGQRVTISCTGSSSNIGAGYDVHWYQQLPGTAPKLLIYGNSNRPSGVPDRFSGSKSGTSASLAITGLQAEDEADYYCAAWNPNPNPNPNPNGGSGGSLRRSSCFGGRMDRIGAQSGLGCNSFRYGSNPNPNPNPNPNVFGSGTKVTVLGQPKAAPSVTLFPPSSEELQANKATLVCLISDFYPGAVTVAWKADSSPVKAGVETTTPSKQSNNKYAASSYLSLTPEQWKSHRSYSCQVTHEGSTVEKTVAPTECS
				-0.1						TPP-10361 (antibody, human IgG1, lambda) heavy: not shown light: QSVLTQPPSVSGAPGQRVTISCTGSSSNIGAGYDVHWYQQLPGTAPKLLIYGSGSGSGSGSGSPDGGSGGSLRRSSCFGGRMDRIGAQSGLGCNSFRYGSYGSGGSGSGSGNRPSGVPDRFSGSKSGTSASLAITGLQAEDEADYYCQSYDSSLSGVVFGGGTKLTVLGQPKAAPSVTLFPPSSEELQANKATLVCLISDFYPGAVTVAWKADSSPVKAGVETTTPSKQSNNKYAASSYLSLTPEQWKSHRSYSCQVTHEGSTVEKTVAPTECS
-0.7					-0.6 and -0.8					TPP-13061 (antibody, human IgG1, lambda) heavy: not shown light: QSVLTQPPSVSGAPGQRVTISCTGSSSNIGAGYDVHWYQQLPGTAPKLLIYGNSNRPSGVPDRFSGSKSGTSASLAITGLQAEDEADYYCQSYDSSLSGVVFGGGTKLTVLGQPKAAPSVTLFPPSSEELQANKATLVCLISDFYPGAVTVAWKADSSPVKAGVETTTPSKQSNNKYAASSYLSLTPEQWKSHRSYSCQVTHEGSTVEKTVAPTECS
-0.5				0		-0.9				TPP-10847 (antibody, human IgG1, lambda) heavy: not shown light: QSVLTQPPSVSGAPGQRVTISCTGSSSNIGAGYDVHWYQQLPGTAPKLLIYGNSNRPSGVPDRFSGSKSGTSASLAITGLQAEDEADYYCQSYDSSLSGVVFGGGTKLTVLGQPKAAPSVTLFPPSSEELQANKATLVCLISDFYPGAVTVAWKADSSPVKAGVETTTPSKQSNNKYAASSYLSLTPEQWKSHRSYSCQVTHEGSTVEKTVAPTECS
-0.8					-0.7 and -0.8					TPP-13054 (antibody, human IgG1, lambda) heavy: not shown light: QSVLTQPPSVSGAPGQRVTISCTGSSSNIGAGYDVHWYQQLPGTAPKLLIYGNSNRPSGVPDRFSGSKSGTSASLAITGLQAEDEADYYCQSYDSSLSGVVFGGGTKLTVLGQPKAAPSVTLFPPSSEELQANKATLVCLISDFYPGAVTVAWKADSSPVKAGVETTTPSKQSNNKYAASSYLSLTPEQWKSHRSYSCQVTHEGSTVEKTVAPTECS
-0.6				-0.4		-0.8				TPP-10845 (antibody, human IgG1, lambda) heavy: not shown light: QSVLTQPPSVSGAPGQRVTISCTGSSSNIGAGYDVHWYQQLPGTAPKLLIYGNSNRPSGVPDRFSGSKSGTSASLAITGLQAEDEADYYCQSYDSSLSGVVFGGGTKLTVLGQPKAAPSVTLFPPSSEELQANKATLVCLISDFYPGAVTVAWKADSSPVKAGVETTTPSKQSNNKYAASSYLSLTPEQWKSHRSYSCQVTHEGSTVEKTVAPTECS
0.1	-0.2		0.1	0.2			0.3			TPP-10282 (antibody, human IgG1, lambda) heavy: not shown light: QSVLTQPPSVSGAPGQRVTISCTGSSSNIGAGYDVHWYQQLPGTAPKLLIYGNSNRPSGVPDRFSGSKSGTSASLAITGLQAEDEADYYCQSYDSSLSGVVFGGGTKLTVLGQPKAAPSVTLFPPSSEELQANKATLVCLISDFYPGAVTVAWKADSSPVKAGVETTTPSKQSNNKYAASSYLSLTPEQWKSHRSYSCQVTHEGSTVEKTVAPTECS
								-0.3		TPP-13230 (antibody) heavy: not shown light: QSVLTQPPSVSGAPGQRVTISCTGSSSNIGAGYDVHWYQQLPGTAPKLLIYGNSNRPSGVPDRFSGSKSGTSASLAITGLQAEDEADYYCQSYDSSLSGVVFGGGTKLTVLGQPKAAPSVTLFPPSSEELQANKATLVCLISDFYPGAVTVAWKADSSPVKAGVETTTPSKQSNNKYAASSYLSLTPEQWKSHRSYSCQVTHEGSTVEKTVAPTECS
-0.1	-0.3	-0.2							0	TPP-10274 (antibody) heavy: not shown light: QSVLTQPPSVSGAPGQRVTISCTGSSSNIGAGYDVHWYQQLPGTAPKLLIYGNSNRPSGVPDRFSGSKSGTSASLAITGLQAEDEADYYCQSYDSSLSGVVFGGGTKLTVLGQPKAAPSVTLFPPSSEELQANKATLVCLISDFYPGAVTVAWKADSSPVKAGVETTTPSKQSNNKYAASSYLSLTPEQWKSHRSYSCQVTHEGSTVEKTVAPTECS
-0.4				-0.9		-0.4			0.2	TPP-10765 (antibody, human IgG1, lambda) heavy: not shown light: QSVLTQPPSVSGAPGQRVTISCTGSSSNIGAGYDVHWYQQLPGTAPKLLIYGNSNRPSGVPDRFSGSKSGTSASLAITGLQAEDEADYYCQSYDSSLSGVVFGGGTKLTVLGQPKAAPSVTLFPPSSEELQANKATLVCLISDFYPGAVTVAWKADSSPVKAGVETTTPSKQSNNKYAASSYLSLTPEQWKSHRSYSCQVTHEGSTVEKTVAPTECS
				-0.8						TPP-10283 (antibody, human IgG1, lambda) heavy: not shown light: QSVLTQPPSVSGAPGQRVTISCTGSSSNIGAGYDVHWYQQLPGTAPKLLIYGNSNRPSGVPDRFSGSKSGTSASLAITGLQAEDEADYYCQSYDSSLSGVVFGGGTKLTVLGQPKAAPSVTLFPPSSEELQANKATLVCLISDFYPGAVTVAWKADSSPVKAGVETTTPSKQSNNKYAASSYLSLTPEQWKSHRSYSCQVTHEGSTVEKTVAPTECS
-0.5	-0.1						-0.8			TPP-10290 (antibody) heavy: not shown light: QSVLTQPPSVSGAPGQRVTISCTGSSSNIGAGYDVHWYQQLPGTAPKLLIYGNSNRPSGVPDRFSGSKSGTSASLAITGLQAEDEADYYCQSYDSSLSGVVFGGGTKLTVLGQPKAAPSVTLFPPSSEELQANKATLVCLISDFYPGAVTVAWKADSSPVKAGVETTTPSKQSNNKYAASSYLSLTPEQWKSHRSYSCQVTHEGSTVEKTVAPTECS
-0.3			-0.2		-0.5 and -0.6 and -0.4				0	TPP-10294 (antibody, human IgG1, lambda) heavy: not shown light: QSVLTQPPSVSGAPGQRVTISCTGSSSNIGAGYDVHWYQQLPGTAPKLLIYGNSNRPSGVPDRFSGSKSGTSASLAITGLQAEDEADYYCQSYDSSLSGVVFGGGTKLTVLGQPKAAPSVTLFPPSSEELQANKATLVCLISDFYPGAVTVAWKADSSPVKAGVETTTPSKQSNNKYAASSYLSLTPEQWKSHRSYSCQVTHEGSTVEKTVAPTECS
